Source: doi:10.1101/2022.04.19.488791 (bioRxiv, 2022)
Where two headings read alike, the source gives them in different places.

Assays:
Assay in all cases: cryo-EM structure
[1] = target: T1, Slh1 helicase subunit of the ribosome quality control trigger complex RQT (wild type) (yeast, UniProt P53327 1-1967)
[2] = target: Slh1-K316R, ATPase-deficient Slh1 subunit of K316R-RQT (yeast, UniProt P53327 1-1967, K316R)
[3] = target: T1, Slh1 helicase subunit of the ribosome …; remark: listed apart in the source

T1 sequence (P53327 whole entry, one chain of several): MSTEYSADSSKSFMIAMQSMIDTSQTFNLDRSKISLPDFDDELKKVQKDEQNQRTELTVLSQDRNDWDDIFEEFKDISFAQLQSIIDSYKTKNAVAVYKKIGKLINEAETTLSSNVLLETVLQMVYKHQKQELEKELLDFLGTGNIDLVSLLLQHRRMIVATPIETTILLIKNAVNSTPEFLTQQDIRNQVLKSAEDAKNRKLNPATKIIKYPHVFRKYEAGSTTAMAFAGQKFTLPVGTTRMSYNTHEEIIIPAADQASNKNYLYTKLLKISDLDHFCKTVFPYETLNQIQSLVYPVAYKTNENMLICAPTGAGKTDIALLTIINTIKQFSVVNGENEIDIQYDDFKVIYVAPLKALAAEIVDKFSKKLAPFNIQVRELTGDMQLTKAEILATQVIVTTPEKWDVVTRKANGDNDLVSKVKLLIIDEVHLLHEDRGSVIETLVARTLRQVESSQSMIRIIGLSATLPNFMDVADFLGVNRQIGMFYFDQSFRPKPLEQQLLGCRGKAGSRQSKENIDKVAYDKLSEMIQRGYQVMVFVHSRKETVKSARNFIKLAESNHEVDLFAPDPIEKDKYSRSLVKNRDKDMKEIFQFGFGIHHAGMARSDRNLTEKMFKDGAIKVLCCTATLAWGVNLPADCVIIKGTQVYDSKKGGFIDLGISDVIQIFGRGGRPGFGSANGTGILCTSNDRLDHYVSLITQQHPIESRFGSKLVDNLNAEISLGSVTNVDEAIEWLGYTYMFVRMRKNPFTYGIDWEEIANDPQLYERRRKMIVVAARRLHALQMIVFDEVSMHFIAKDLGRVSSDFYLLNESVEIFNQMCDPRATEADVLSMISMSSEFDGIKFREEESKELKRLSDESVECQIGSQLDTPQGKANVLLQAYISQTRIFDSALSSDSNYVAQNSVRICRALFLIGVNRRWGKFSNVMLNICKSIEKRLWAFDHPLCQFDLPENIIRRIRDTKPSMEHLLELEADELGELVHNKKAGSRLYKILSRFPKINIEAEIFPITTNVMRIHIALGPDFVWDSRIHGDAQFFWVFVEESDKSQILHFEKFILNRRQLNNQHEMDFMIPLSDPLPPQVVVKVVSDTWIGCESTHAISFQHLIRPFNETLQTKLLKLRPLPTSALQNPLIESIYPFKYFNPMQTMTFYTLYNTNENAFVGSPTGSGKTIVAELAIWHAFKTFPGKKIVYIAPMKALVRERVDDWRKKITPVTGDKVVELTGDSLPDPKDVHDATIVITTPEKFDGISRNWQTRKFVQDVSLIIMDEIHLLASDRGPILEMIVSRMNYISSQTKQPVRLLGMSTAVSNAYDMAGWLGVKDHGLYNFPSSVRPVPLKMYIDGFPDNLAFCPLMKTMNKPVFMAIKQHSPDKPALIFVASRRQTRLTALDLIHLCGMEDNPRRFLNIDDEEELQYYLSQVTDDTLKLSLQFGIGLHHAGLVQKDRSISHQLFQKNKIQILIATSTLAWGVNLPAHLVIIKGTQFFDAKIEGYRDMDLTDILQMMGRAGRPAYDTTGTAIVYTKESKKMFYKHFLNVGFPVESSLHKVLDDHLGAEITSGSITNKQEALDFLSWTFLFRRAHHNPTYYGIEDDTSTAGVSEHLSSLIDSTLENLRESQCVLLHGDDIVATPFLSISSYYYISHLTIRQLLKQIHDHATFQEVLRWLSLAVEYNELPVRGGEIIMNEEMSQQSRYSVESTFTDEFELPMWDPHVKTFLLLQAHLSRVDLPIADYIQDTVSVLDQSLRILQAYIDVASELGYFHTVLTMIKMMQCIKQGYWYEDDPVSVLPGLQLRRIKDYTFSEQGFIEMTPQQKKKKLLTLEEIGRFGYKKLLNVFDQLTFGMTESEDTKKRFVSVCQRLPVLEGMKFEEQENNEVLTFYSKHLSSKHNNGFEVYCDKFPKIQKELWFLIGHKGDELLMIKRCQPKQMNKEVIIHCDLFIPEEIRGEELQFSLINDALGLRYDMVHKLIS
Slh1-K316R, ATPase-deficient Slh1 subunit of K316R-RQT, sequence (P53327 whole entry K316R): as the sequence (P53327 whole entry, one chain of several) above, with K316R counted along it

Binder	binding result [1]	binding result [2]	binding result [3]
Cue3, ubiquitin-binding CUE domain containing subunit of RQT (natural protein, yeast, UniProt P53137 1-624, looked up) MLSRYNRVIEINGGNADISLPIVKFPPFKLRAQLIEKDPVVWLHLIETYVTYFEYLMQGANVELLDESTLDHLRLFLRTYLHEIADEEGKLLSLGINHDVSEQLYLLKGWIFSLIKKCGLLHLQIFGDSLWNLIKVYVRRNPDSIRGLIDGSLKPRINTQRVQLDKSYQVQQHLKQLIESGKFKRIDLRCVEDLLSAKSMQPNKFAENFFTANWIEILEALWAKGQGRGHKEARELIIISLFSVSADRLLKITKELGISNFETLALYPLLGTMLINEGVHKRLPDLKSKLLFLNLGGLSMDEGDHMSYPTSSGTEVNEEQLSALMELFPQFSKYQLSQTLLAYDNNIELVTNKIFEDPTIIEAFSREPAEEEVEPVSDGDNASFTEELSILDRGDSSKNKELDKKIISEGVPDELRNKTLTRALKLLYEADEDERDDTYDEADVNRSDPSKRIGLQEDEESYDTKDDSNEVRQDHNYHIVEAYLWNLLKEDPKLFERSKRGTKVRKTMKEMTSWSDEKIEGWCRMLERSPTRARLLEKKFMFKGNSKTGKTSYVHNRDSQNDGNVVKEQAKQKKSENIKKHEPQSTEQKKRQHAKNEKRKGARANHNRKKGHDKKLARAGNNAI	binds	binds	–
ribosomal protein uS3 of the 40S subunit (natural protein, UniProt P05750 1-240, looked up) MVALISKKRKLVADGVFYAELNEFFTRELAEEGYSGVEVRVTPTKTEVIIRATRTQDVLGENGRRINELTLLVQKRFKYAPGTIVLYAERVQDRGLSAVAQAESMKFKLLNGLAIRRAAYGVVRYVMESGAKGCEVVVSGKLRAARAKAMKFADGFLIHSGQPVNDFIDTATRHVLMRQGVLGIKVKIMRDPAKSRTGPKALPDAVTIIEPKEEEPILAPSVKDYRPAEETEAQAEPVEA	–	–	binds
ribosomal protein uS5 of the 40S subunit (natural protein, UniProt P25443 1-254, looked up) MSAPEAQQQKRGGFGGRNRGRPNRRGPRNTEEKGWVPVTKLGRLVKAGKITTIEEIFLHSLPVKEFQIIDTLLPGLQDEVMNIKPVQKQTRAGQRTRFKAVVVVGDSNGHVGLGIKTAKEVAGAIRAGIIIAKLSVIPIRRGYWGTNLGQPHSLATKTTGKCGSVTVRLIPAPRGSGIVASPAVKKLLQLAGVEDVYTQSNGKTRTLENTLKAAFVAIGNTYGFLTPNLWAEQPLPVSPLDIYSDEASAQKKRF	–	–	binds
RACK1 (Asc1) of the 40S head (natural protein, UniProt P38011 1-319, looked up) MASNEVLVLRGTLEGHNGWVTSLATSAGQPNLLLSASRDKTLISWKLTGDDQKFGVPVRSFKGHSHIVQDCTLTADGAYALSASWDKTLRLWDVATGETYQRFVGHKSDVMSVDIDKKASMIISGSRDKTIKVWTIKGQCLATLLGHNDWVSQVRVVPNEKADDDSVTIISAGNDKMVKAWNLNQFQIEADFIGHNSNINTLTASPDGTLIASAGKDGEIMLWNLAAKKAMYTLSAQDEVFSLAFSPNRYWLAAATATGIKVFSLDPQYLVDDLRPEFAGYSKAAEPHAVSLAWSADGQTLFAGYTDNVIRVWQVMTAN	–	–	binds
Rqt4, zinc-finger containing subunit of RQT (natural protein, yeast, UniProt P36119 1-530, looked up) MTRKQAIDYAIKQVPQILPLEESDVKALCEQVLSTSSDDPEQIASKFLEFLGHEDLSFEFVMKFNELLNQNDKKEEKKTKNVHLEHTAPTSWKNESKQPTNNYINKKGDEKPKKLKDEKKSSTTRPTVQPSNQSTQSNPIKEKKEHRSKGKLQSLQEIDEAIKMLELRDSGSSKNCNCQGTRHPVFDIAPNCLHCGKVVCVIEGLNKGKCGHCHEQLISDNERTQMVEILNQEKNELNGSSSSLSNASNGANVPKKKTKTYKITSGMGKNLFAEQDKLFDFIERKRERERKRNEVLKLQEEKEESEAKERQASEHDHKAEENPELLAAQERLDRLLYFQDTSAERTKIIDNASDFDMNQEVGLWGSARERALALKKQQRNLRKWEKVEKERNGRREKYVVSMNIGSNGKVTMTEVPKDTENVIAGSDDDISDISDEEDISDLKHIHALKSEINTTKSLENLHLQSKAWDYERDKKQFDRPTYVKKNSDTAQQNRKTEEKAHDMQAYDLKSRVQVDQNADASVEQNILAVL	binds	binds	–
